T1: Methuselah (Mth) ectodomain, C-terminal biotinylated (Drosophila melanogaster)
T1 sequence (O97148 whole entry, looked up): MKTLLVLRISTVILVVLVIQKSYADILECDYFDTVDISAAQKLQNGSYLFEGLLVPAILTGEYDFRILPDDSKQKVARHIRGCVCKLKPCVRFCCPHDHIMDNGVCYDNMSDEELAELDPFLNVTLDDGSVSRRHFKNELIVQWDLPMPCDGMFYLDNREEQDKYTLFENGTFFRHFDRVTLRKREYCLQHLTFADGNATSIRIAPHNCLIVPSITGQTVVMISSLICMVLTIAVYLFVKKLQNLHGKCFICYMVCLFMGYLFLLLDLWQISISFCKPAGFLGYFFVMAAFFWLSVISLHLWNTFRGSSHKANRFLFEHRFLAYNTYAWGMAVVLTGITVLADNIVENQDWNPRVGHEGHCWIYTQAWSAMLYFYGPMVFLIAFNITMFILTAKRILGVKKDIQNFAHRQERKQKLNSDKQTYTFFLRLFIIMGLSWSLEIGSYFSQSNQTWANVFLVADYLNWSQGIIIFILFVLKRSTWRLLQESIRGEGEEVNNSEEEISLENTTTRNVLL

T2: LP1 peptide
T2 chain: FPSSWLQRYYLAKRR


Tests used:
[1] = biological target: T1, Methuselah (Mth) ectodomain, C-terminal biotinylated (Drosophila melanogaster); experiment: SPR
[2] = biological target: T2, LP1 peptide

Binder | Kd [1] [nM] | Kd [2] [nM]
Ac-FPSSWLQRYYLAKRR-NH2 [LP1 peptide (wild type)] | 18.5 | –
Ac-FPSSWLQRYYQAKRR-NH2 [LP1 L11Q mutant peptide] | 24.5 | –
Ac-FPSSWLQRFYLAKRR-NH2 [LP1 Y9F mutant peptide] | 49.5 | –
Ac-FPSSFLQRYYLAKRR-NH2 [LP1 W5F mutant peptide] | 12000 | –
Ac-FPSSWLQRYYLAKRQ-NH2 [LP1 R15Q mutant peptide] | 37.7 | –
Ac-FPSSKLQRYYLAKRR-NH2 [LP1 W5K mutant peptide] | > 15000 | –
Methuselah ectodomain (protein) DILECDYFDTVDISAAQKLQNGSYLFEGLLVPAILTGEYDFRILPDDSKQKVARHIRGCVCKLKPCVRFCCPHDHIMDNGVCYDNMSDEELAELDPFLNVTLDDGSVSRRHFKNELIVQWDLPMPCDGMFYLDNREEQDKYTLFENGTFFRHFDRVTLRKREYCLQHLTFADGNATSIRIAPHNCLIVPSITGQ | – | 18

Source: publication PMC2900200 (2008)
